Assay results taken from patent US20240352438A1, “MEANS AND METHODS FOR DETOXIFYING OCHRATOXIN A” (DSM Austria GmbH, priority 2021, published 2024).

Test: OTA detoxification activity assay (specific activity, fluorescence reduction ex/em 390/450 nm)
Type: biochemical
Details: SEQ ID NO: 1 = 100%
Description: To determine the specific activity of recombinant target polypeptides produced e.g. as described in Example 2 above in units per liter (U/L), ochratoxin A (OTA) detoxification activity assays were performed. One unit is defined as the amount of enzyme necessary for degradation of 1 μmol or OTA in 1 min when using a starting OTA concentration of […].
OTA detoxification activity assays were set up in a final volume of the reaction mixture of […], containing the recombinant enzyme preparation (preferably diluted to yield a volumetric activity of 1-10 mU/L), and 200 ng/mL OTA in 100 mM sodium phosphate buffer.
Specific activities were determined at pH 6.0 and pH 7.5. As soon as all components of the reaction mixture were mixed, OTA degradation was followed at 37° C. on a fluorescence spectrophotometer (BioTek Synergy H1 MFD Multimode microplate reader) by following the reduction in fluorescence at ex/em 390 nm/450 nm. For work performed at pH 6.0 and 7.5, a 100 mM sodium phosphate buffer was used.
For calculation of the specific activity, the initial linear part of the recorded fluorescence reduction curve was used. In addition to the fluorescence-based method described above, OTA degradation was also determined by using the HPLC-MS method as described by Dellafiora et al. 2020, Toxins 12, 258, essentially confirming the fluorescence-based results. Genes encoding either of the indicated SEQ ID NOs are expressed as described herein and the specific activities for the obtained polypeptide preparation are exemplarily shown in Table 8. Analogously, enzymatic activities using either ochratoxin B, C or TA as substrate or can be found.

Molecule	Specific OTA detoxification activities in % compared to the enzyme of SEQ ID NO: 1, pH 6.0 [%]	Specific OTA detoxification activities in % compared to the enzyme of SEQ ID NO: 1, pH 7.5 [%]
258 (protein, exemplary polypeptide) MTTRTRILTAFLSLLAANACAADAAPAAPHTVVLRAARMFDGASGKLVDHPQLTIVGNKIVRIAQGDKAEVPAGAEVVDLGDATLLPGFIDAHVHLSGQSSDNWYGDFFDNMMRFPAEQALYGAYYARITLEAGFTSVRDVGSTDWVALGLRNAIDAGKVPGPRMLVSNYAVGSTGGHADQDPIPPHKLPLAGPLQGVCNGPEECRAAVRYQIKYGANVIKFMPSGGVLSLSDPVDAPELSQDEMNAVIGESHAWGRKVAAHAHGDKAAKMAVAAGVDSIEHGDFIEDDTLRAMKAKNVYLVPTISAIAHVEEKIGTFPPVIAEKGRATAAHLRQTFRHAVQIGVPIALGTDAGVGAHGSNAREFRYMVENGLTPAQALLAGTANAARLLGTFDRVGTLEAGKLADVVAVPGNPIADITVTERPLFVMKDGVVVRRDAVR	29	25
263 (protein, exemplary polypeptide) MTTRTRILTAFLSLLAANACAADAAPAAPHTVVLRAARMFDGASGKLVDHPQLTIVGNKIVRIAQGDKAEVPAGAEVVDLGDATLLPGFIDAHVHLSGQSSDNWNGDFFDNMMRFPAEQALYGAYYARITLEAGFTSVRDVGSTDWVALGLRNAIDAGKVPGPRMLVSNYAVGSTGGHADQDPIPPHKLPLAGPLQGVCNGPEECRAAVRYQIKYGANVIKFMPSGGVLSLSDPVDAPELSQDEMNAVIGESHAWGRKVAAHAHGDKAAKMAVAAGVDSIEHGSFIEDDTLRAMKAKNVYLVPTISAIAHVEEKIGTFPPVIAEKGRAAAAHLRQTFRHAVQIGVPIALGTDAGVGAHGSNAREFRYMVENGLTPAQALLAGTANAARLLGTFDRVGTLEAGKLADVVAVPGNPIADITVTERPLFVMKDGVVVRRDAVR	19	11
264 (protein, exemplary polypeptide) MTTRTRILTAFLSLLAANACAADAAPAAPHTVVLRAARMFDGASGKLVDHPQLTIVGNKIVRIAQGDKAEVPAGAEVVDLGDATLLPGFIDAHVHLSGQSSDNWRGDFFDNMMRFPAEQALYGAYYARITLEAGFTSVRDVGSTDWVALGLRNAIDAGKVPGPRMLVSNYAVGSTGGHADQDPIPPHKLPLAGPLQGVCNGPEECRAAVRYQIKYGANVIKFMPSGGVLSLSDPVDAPELSQDEMNAVIGESHAWGRKVAAHAHGDKAAKMAVAAGVDSIEHGSFIEDDTLRAMKAKNVYLVPTISAIAHVEEKIGTFPPVIAEKGRAAAAHLRQTFRHAVQIGVPIALGTDAGVGAHGSNAREFRYMVENGLTPAQALLAGTANAARLLGTFDRVGTLEAGKLADVVAVPGNPIADITVTERPLFVMKDGVVVRRDAVR	46	44
265 (protein, exemplary polypeptide) MTTRTRILTAFLSLLAANACAADAAPAAPHTVVLRAARMFDGASGKLVDHPQLTIVGNKIVRIAQGDKAEVPAGAEVVDLGDATLLPGFIDAHVHLSGQSSDNWYPDFFDNMMRFPAEQALYGAYYARITLEAGFTSVRDVGSTDWVALGLRNAIDAGKVPGPRMLVSNYAVGSTGGHADQDPIPPHKLPLAGPLQGVCNGPEECRAAVRYQIKYGANVIKFMPSGGVLSLSDPVDAPELSQDEMNAVIGESHAWGRKVAAHAHGDKAAKMAVAAGVDSIEHGSFIEDDTLRAMKAKNVYLVPTISAIAHVEEKIGTFPPVIAEKGRAAAAHLRQTFRHAVQIGVPIALGTDAGVGAHGSNAREFRYMVENGLTPAQALLAGTANAARLLGTFDRVGTLEAGKLADVVAVPGNPIADITVTERPLFVMKDGVVVRRDAVR	20	11
266 (protein, exemplary polypeptide) MTTRTRILTAFLSLLAANACAADAAPAAPHTVVLRAARMFDGASGKLVDHPQLTIVGNKIVRIAQGDKAEVPAGAEVVDLGDATLLPGFIDAHVHLSGQSSDNWYGRFFDNMMRFPAEQALYGAYYARITLEAGFTSVRDVGSTDWVALGLRNAIDAGKVPGPRMLVSNYAVGSTGGHADQDPIPPHKLPLAGPLQGVCNGPEECRAAVRYQIKYGANVIKFMPSGGVLSLSDPVDAPELSQDEMNAVIGESHAWGRKVAAHAHGDKAAKMAVAAGVDSIEHGSFIEDDTLRAMKAKNVYLVPTISAIAHVEEKIGTFPPVIAEKGRAAAAHLRQTFRHAVQIGVPIALGTDAGVGAHGSNAREFRYMVENGLTPAQALLAGTANAARLLGTFDRVGTLEAGKLADVVAVPGNPIADITVTERPLFVMKDGVVVRRDAVR	11	22
271 (protein, exemplary polypeptide) MTTRTRILTAFLSLLAANACAADAAPAAPHTVVLRAARMFDGASGKLVDHPQLTIVGNKIVRIAQGDKAEVPAGAEVVDLGDATLLPGFIDAHVHLSGQSSDNWYGDFFDNMRRFPAEQALYGAYYARITLEAGFTSVRDVGSTDWVALGLRNAIDAGKVPGPRMLVSNYAVGSTGGHADQDPIPPHKLPLAGPLQGVCNGPEECRAAVRYQIKYGANVIKFMPSGGVLSLSDPVDAPELSQDEMNAVIGESHAWGRKVAAHAHGDKAAKMAVAAGVDSIEHGSFIEDDTLRAMKAKNVYLVPTISAIAHVEEKIGTFPPVIAEKGRAAAAHLRQTFRHAVQIGVPIALGTDAGVGAHGSNAREFRYMVENGLTPAQALLAGTANAARLLGTFDRVGTLEAGKLADVVAVPGNPIADITVTERPLFVMKDGVVVRRDAVR	6	23
276 (protein, exemplary polypeptide) MTTRTRILTAFLSLLAANACAADAAPAAPHTVVLRAARMFDGASGKLVDHPQLTIVGNKIVRIAQGDKAEVPAGAEVVDLGDATLLPGFIDAHVHLSGQSSDNWYGDFFDNMMRFPAEQALYGAYYARITLEAGFTSVRDVGSTDWVALGLRNAIDAGKVPGPRMLVSNYAVGSTSGHADQDPIPPHKLPLAGPLQGVCNGPEECRAAVRYQIKYGANVIKFMPSGGVLSLSDPVDAPELSQDEMNAVIGESHAWGRKVAAHAHGDKAAKMAVAAGVDSIEHGSFIEDDTLRAMKAKNVYLVPTISAIAHVEEKIGTFPPVIAEKGRAAAAHLRQTFRHAVQIGVPIALGTDAGVGAHGSNAREFRYMVENGLTPAQALLAGTANAARLLGTFDRVGTLEAGKLADVVAVPGNPIADITVTERPLFVMKDGVVVRRDAVR	13	30
277 (protein, exemplary polypeptide) MTTRTRILTAFLSLLAANACAADAAPAAPHTVVLRAARMFDGASGKLVDHPQLTIVGNKIVRIAQGDKAEVPAGAEVVDLGDATLLPGFIDAHVHLSGQSSDNWYGDFFDNMMRFPAEQALYGAYYARITLEAGFTSVRDVGSTDWVALGLRNAIDAGKVPGPRMLVSNYAVGSTGGHADQDPIPPHKLPLLGPLQGVCNGPEECRAAVRYQIKYGANVIKFMPSGGVLSLSDPVDAPELSQDEMNAVIGESHAWGRKVAAHAHGDKAAKMAVAAGVDSIEHGSFIEDDTLRAMKAKNVYLVPTISAIAHVEEKIGTFPPVIAEKGRAAAAHLRQTFRHAVQIGVPIALGTDAGVGAHGSNAREFRYMVENGLTPAQALLAGTANAARLLGTFDRVGTLEAGKLADVVAVPGNPIADITVTERPLFVMKDGVVVRRDAVR	6	14
